From patent publication US20260317437 (published 2026) come the findings set out here.

The chains are these.
B1: VH Y30Q (antibody, V domains shown)
VH: EVQLVESGGGLVQPGGSLRLSCAASGFNIQYNYIHWVRQAPGKGLEWVAEFSPYSGSTYYADSVKGRFTISADTSKNTAYLQMNSLRAEDTAVYYCARSAAIVDWYDYFKGFDYWGQGTLVTVSS
VL: DIQMTQSPSSLSASVGDRVTITCRASQSVSSAVAWYQQKPGKAPKLLIYSASSLYSGVPSRFSGSRSGTDFTLTISSLQPEDFATYYCQQYGSYLYTFGQGTKVEIK
B2: VH Y100bV (antibody, V domains shown)
VH: EVQLVESGGGLVQPGGSLRLSCAASGFNIYYNYIHWVRQAPGKGLEWVAEFSPYSGSTYYADSVKGRFTISADTSKNTAYLQMNSLRAEDTAVYYCARSAAIVDWVDYFKGFDYWGQGTLVTVSS
VL: DIQMTQSPSSLSASVGDRVTITCRASQSVSSAVAWYQQKPGKAPKLLIYSASSLYSGVPSRFSGSRSGTDFTLTISSLQPEDFATYYCQQYGSYLYTFGQGTKVEIK
B3: VH Y31V (antibody, V domains shown)
VH: EVQLVESGGGLVQPGGSLRLSCAASGFNIYVNYIHWVRQAPGKGLEWVAEFSPYSGSTYYADSVKGRFTISADTSKNTAYLQMNSLRAEDTAVYYCARSAAIVDWYDYFKGFDYWGQGTLVTVSS
VL: DIQMTQSPSSLSASVGDRVTITCRASQSVSSAVAWYQQKPGKAPKLLIYSASSLYSGVPSRFSGSRSGTDFTLTISSLQPEDFATYYCQQYGSYLYTFGQGTKVEIK
B4: VL Y94W (antibody, V domains shown)
VH: EVQLVESGGGLVQPGGSLRLSCAASGFNIYYNYIHWVRQAPGKGLEWVAEFSPYSGSTYYADSVKGRFTISADTSKNTAYLQMNSLRAEDTAVYYCARSAAIVDWYDYFKGFDYWGQGTLVTVSS
VL: DIQMTQSPSSLSASVGDRVTITCRASQSVSSAVAWYQQKPGKAPKLLIYSASSLYSGVPSRFSGSRSGTDFTLTISSLQPEDFATYYCQQYGSWLYTFGQGTKVEIK
B5: VH Y100bA (antibody, V domains shown)
VH: EVQLVESGGGLVQPGGSLRLSCAASGFNIYYNYIHWVRQAPGKGLEWVAEFSPYSGSTYYADSVKGRFTISADTSKNTAYLQMNSLRAEDTAVYYCARSAAIVDWADYFKGFDYWGQGTLVTVSS
VL: DIQMTQSPSSLSASVGDRVTITCRASQSVSSAVAWYQQKPGKAPKLLIYSASSLYSGVPSRFSGSRSGTDFTLTISSLQPEDFATYYCQQYGSYLYTFGQGTKVEIK
B6: VL Y91Q (antibody, V domains shown)
VH: EVQLVESGGGLVQPGGSLRLSCAASGFNIYYNYIHWVRQAPGKGLEWVAEFSPYSGSTYYADSVKGRFTISADTSKNTAYLQMNSLRAEDTAVYYCARSAAIVDWYDYFKGFDYWGQGTLVTVSS
VL: DIQMTQSPSSLSASVGDRVTITCRASQSVSSAVAWYQQKPGKAPKLLIYSASSLYSGVPSRFSGSRSGTDFTLTISSLQPEDFATYYCQQQGSYLYTFGQGTKVEIK
B7: VL Y91K (antibody, V domains shown)
VH: EVQLVESGGGLVQPGGSLRLSCAASGFNIYYNYIHWVRQAPGKGLEWVAEFSPYSGSTYYADSVKGRFTISADTSKNTAYLQMNSLRAEDTAVYYCARSAAIVDWYDYFKGFDYWGQGTLVTVSS
VL: DIQMTQSPSSLSASVGDRVTITCRASQSVSSAVAWYQQKPGKAPKLLIYSASSLYSGVPSRFSGSRSGTDFTLTISSLQPEDFATYYCQQKGSYLYTFGQGTKVEIK
B8: VL S93N (antibody, V domains shown)
VH: EVQLVESGGGLVQPGGSLRLSCAASGFNIYYNYIHWVRQAPGKGLEWVAEFSPYSGSTYYADSVKGRFTISADTSKNTAYLQMNSLRAEDTAVYYCARSAAIVDWYDYFKGFDYWGQGTLVTVSS
VL: DIQMTQSPSSLSASVGDRVTITCRASQSVSSAVAWYQQKPGKAPKLLIYSASSLYSGVPSRFSGSRSGTDFTLTISSLQPEDFATYYCQQYGNYLYTFGQGTKVEIK
B9: VH Y30R (antibody, V domains shown)
VH: EVQLVESGGGLVQPGGSLRLSCAASGFNIRYNYIHWVRQAPGKGLEWVAEFSPYSGSTYYADSVKGRFTISADTSKNTAYLQMNSLRAEDTAVYYCARSAAIVDWYDYFKGFDYWGQGTLVTVSS
VL: DIQMTQSPSSLSASVGDRVTITCRASQSVSSAVAWYQQKPGKAPKLLIYSASSLYSGVPSRFSGSRSGTDFTLTISSLQPEDFATYYCQQYGSYLYTFGQGTKVEIK
B10: VH Y30W (antibody, V domains shown)
VH: EVQLVESGGGLVQPGGSLRLSCAASGFNIWYNYIHWVRQAPGKGLEWVAEFSPYSGSTYYADSVKGRFTISADTSKNTAYLQMNSLRAEDTAVYYCARSAAIVDWYDYFKGFDYWGQGTLVTVSS
VL: DIQMTQSPSSLSASVGDRVTITCRASQSVSSAVAWYQQKPGKAPKLLIYSASSLYSGVPSRFSGSRSGTDFTLTISSLQPEDFATYYCQQYGSYLYTFGQGTKVEIK
B11: VL S93D (antibody, V domains shown)
VH: EVQLVESGGGLVQPGGSLRLSCAASGFNIYYNYIHWVRQAPGKGLEWVAEFSPYSGSTYYADSVKGRFTISADTSKNTAYLQMNSLRAEDTAVYYCARSAAIVDWYDYFKGFDYWGQGTLVTVSS
VL: DIQMTQSPSSLSASVGDRVTITCRASQSVSSAVAWYQQKPGKAPKLLIYSASSLYSGVPSRFSGSRSGTDFTLTISSLQPEDFATYYCQQYGDYLYTFGQGTKVEIK
B12: VL S93E (antibody, V domains shown)
VH: EVQLVESGGGLVQPGGSLRLSCAASGFNIYYNYIHWVRQAPGKGLEWVAEFSPYSGSTYYADSVKGRFTISADTSKNTAYLQMNSLRAEDTAVYYCARSAAIVDWYDYFKGFDYWGQGTLVTVSS
VL: DIQMTQSPSSLSASVGDRVTITCRASQSVSSAVAWYQQKPGKAPKLLIYSASSLYSGVPSRFSGSRSGTDFTLTISSLQPEDFATYYCQQYGEYLYTFGQGTKVEIK
B13: VH V99K (antibody, V domains shown)
VH: EVQLVESGGGLVQPGGSLRLSCAASGFNIYYNYIHWVRQAPGKGLEWVAEFSPYSGSTYYADSVKGRFTISADTSKNTAYLQMNSLRAEDTAVYYCARSAAIKDWYDYFKGFDYWGQGTLVTVSS
VL: DIQMTQSPSSLSASVGDRVTITCRASQSVSSAVAWYQQKPGKAPKLLIYSASSLYSGVPSRFSGSRSGTDFTLTISSLQPEDFATYYCQQYGSYLYTFGQGTKVEIK
B14: VL S93K (antibody, V domains shown)
VH: EVQLVESGGGLVQPGGSLRLSCAASGFNIYYNYIHWVRQAPGKGLEWVAEFSPYSGSTYYADSVKGRFTISADTSKNTAYLQMNSLRAEDTAVYYCARSAAIVDWYDYFKGFDYWGQGTLVTVSS
VL: DIQMTQSPSSLSASVGDRVTITCRASQSVSSAVAWYQQKPGKAPKLLIYSASSLYSGVPSRFSGSRSGTDFTLTISSLQPEDFATYYCQQYGKYLYTFGQGTKVEIK
B15: VL Y91F (antibody, V domains shown)
VH: EVQLVESGGGLVQPGGSLRLSCAASGFNIYYNYIHWVRQAPGKGLEWVAEFSPYSGSTYYADSVKGRFTISADTSKNTAYLQMNSLRAEDTAVYYCARSAAIVDWYDYFKGFDYWGQGTLVTVSS
VL: DIQMTQSPSSLSASVGDRVTITCRASQSVSSAVAWYQQKPGKAPKLLIYSASSLYSGVPSRFSGSRSGTDFTLTISSLQPEDFATYYCQQFGSYLYTFGQGTKVEIK

Sequence of GCGR extracellular domain (P47871 26-477): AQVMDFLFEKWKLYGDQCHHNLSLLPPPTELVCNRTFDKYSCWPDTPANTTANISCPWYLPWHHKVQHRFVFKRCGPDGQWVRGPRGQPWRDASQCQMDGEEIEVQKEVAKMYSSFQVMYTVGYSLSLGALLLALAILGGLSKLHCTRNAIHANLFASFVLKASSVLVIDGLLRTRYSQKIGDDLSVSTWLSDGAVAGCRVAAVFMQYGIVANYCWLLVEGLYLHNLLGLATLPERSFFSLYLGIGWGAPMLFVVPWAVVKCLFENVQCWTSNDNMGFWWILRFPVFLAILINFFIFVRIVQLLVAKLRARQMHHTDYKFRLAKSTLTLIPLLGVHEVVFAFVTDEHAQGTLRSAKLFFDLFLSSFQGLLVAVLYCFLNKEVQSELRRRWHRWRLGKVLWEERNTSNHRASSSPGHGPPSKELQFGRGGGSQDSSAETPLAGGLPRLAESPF

The test addresses GCGR extracellular domain (human, UniProt P47871). Description: SPR. A general note: SPR reads the build-up and loss of mass on a sensor chip optically.
Turning to B1, the affinity, expressed as Kd, was 23.4 nM. With B2 the figure was 1.08 nM; with B3, 406 nM.

In turn, B4 registered a Kd of 2.55 nM. B5: the affinity, expressed as Kd, was 3.54 nM.

For B6, the Kd worked out at 2.36 nM. B7 returned a Kd of 2.08 nM. Consider B8, for which the Kd is 0.962 nM.

The molecule B9 registered a Kd of 110 nM. B10: the Kd came to 6.44 nM.

In turn, B11 registered a dissociation constant Kd of 1.3 nM. The molecule B12 displayed a Kd of 0.968 nM. For the molecule B13, binding was put at a Kd of 17.3 nM. With B14 the figure was 2.91 nM; with B15, 1.69 nM.

By Kd is commonly meant the concentration at which binding is half-saturated. A lower Kd goes with tighter binding.
